The numbers were not newly measured in article PMC3078936, which cites them from elsewhere.

The data set deals with Bmf (Homo sapiens). To be noted: cited from earlier work.

DYNLL1, sequence (P63167 whole entry): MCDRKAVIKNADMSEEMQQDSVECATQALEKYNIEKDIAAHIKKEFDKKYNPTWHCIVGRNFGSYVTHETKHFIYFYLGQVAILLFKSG

The Kd is a measure of binding affinity in units of concentration. As to DYNLL1 (from UniProt P63167), the Kd was 750 nM.
